Measured values: the supplement of paper PMC10567573

B1: MGC27345 (parent)
chain: KYMPHLCQDSSGEVSCQCQLHPPR

Variants of: B1
Test: protein stability index of a GFP-peptide fusion (GPS, HEK-293T) (PSI 1-6); higher = more stable
Conditions: c terminus: a fixed tail appended
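Also: lentivirally expressed fusions sorted by FACS into six bins by GFP to DsRed ratio, PSI derived from sequencing read proportions per bin multiplied by bin number.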

Protein stability index of substitutions, site by site:
P22: E 3.09 | M 2.51 | V 2.17 | A 2.66 | C 2.47 | K 2.43 | Q 2.64 | Y 2.45 | D 4.1 | W 2.05 | R 2.62 | L 2.73 | G 3.29 | N 3.16 | S 2.55 | I 2.03 | H 3.14 | T 2.49 | F 2.41
L20: Y 2.05 | H 3.1 | F 2.13 | I 2.79 | N 2.56 | E 3.1 | T 2.12 | A 2.37 | V 2.17 | P 3.73 | D 2.73 | W 1.82 | G 1.85 | C 2.44 | M 2.73 | S 2.49 | Q 2.34 | K 2.04
V14: Y 2.08 | T 2.87 | R 2.24 | W 2.42 | S 2.88
Q19: M 2.13 | Y 2.71 | A 2.45 | N 2.63 | F 2.71 | G 2.81 | E 3.08 | I 2.15 | D 2.25 | W 2.48 | K 2.07 | T 2.36 | H 1.52 | P 3.84 | S 2.5 | C 2.07 | L 2.12 | V 1.96
C18: M 2.54 | I 3.34 | V 3.48 | Y 1.69 | Q 3.6 | L 3.35 | K 3.44 | W 2.44 | E 3.62 | R 3 | N 4.32 | P 3.55 | A 3.46 | T 3.35 | S 3.79 | D 3.65 | F 1.93 | H 2.94
C16: S 2.03 | K 3.58 | M 2.9 | V 2.85 | N 3.1 | R 3.1 | E 4.02 | T 2.96 | Q 3.99 | P 3.31 | W 2.38 | H 3.05 | G 4.1 | I 1.93 | A 3.38 | L 2.94 | D 3.88 | F 2.16 | Y 3.13
H21: L 1.51 | Q 4.58 | S 2.86 | R 1.69 | C 2.65 | T 3.51 | Y 2.06 | F 1.63 | A 3.18 | E 3.34 | K 2.7 | I 2.75 | N 2.31 | P 3.07 | D 2.6
R24: A 3.79 | C 3.86
P23: C 3.96 | F 2.32 | I 2.24 | H 2.66 | L 2.38 | D 3.71 | S 2.47 | V 2.87 | A 2.34 | W 2.34 | M 2.2 | N 2.85 | T 2.02 | K 2.35 | G 3.38 | Y 2.07 | Q 2.29 | E 3.48
S15: Q 1.96 | W 1.02 | N 2.62 | P 2.67 | V 2.48 | F 1.67 | T 1.41 | C 2.28 | E 3.32 | I 1.63 | L 1.72 | G 2.14 | D 3.99 | K 2.8 | Y 2.22 | R 1.63 | H 1.64
Q17: R 2.35 | Y 1.76 | N 1.47 | G 1.62 | W 2.6 | P 2.21 | L 2.17 | I 1.76 | D 2.83 | C 2.32 | A 1.66 | K 3.52 | T 1.81 | V 2.44 | M 3.13 | S 1.33 | F 2.21 | H 1.74
